For test [1], the target named is T1, His-tagged ECD of mouse 4-1BB (mouse, UniProt P20334 24-187).
T1 construct: also called murine 4-1BB; mu4-1BB; not shown: His tag
T1 sequence: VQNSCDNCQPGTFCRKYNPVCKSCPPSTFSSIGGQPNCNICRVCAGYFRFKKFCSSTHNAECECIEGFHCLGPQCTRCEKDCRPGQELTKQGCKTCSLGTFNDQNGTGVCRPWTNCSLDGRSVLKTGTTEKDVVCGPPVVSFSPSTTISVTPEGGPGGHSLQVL
Nature of the test: SPR (Biacore), captured antibody, His-tagged ECD analyte. How it is done:
(§1) The binding kinetics of the 4-1BB antibodies for target proteins were determined by using a Biacore T200 surface plasmon resonance system (BlAcore, GE Healthcare, Piscataway, N.J.). Polyclonal goat anti-human Fc antibody (Pierce 31125) was first immobilized to the biosensor surface using standard amine coupling reagents (N-ethyl-N′-dimethylamino-propylcarbodiimide, EDC; N-hydroxysuccinimide, NHS; and ethanolamine HCl, pH 8.5), followed by the capture of antibodies on parallel surfaces at a low flow rate of 10 μL/min. No capture of the antibody was made on the reference surface to serve as a negative control. Antigen (His-tagged ECD of 4-1BB derived from human, cynomolgus monkey, or mouse) was injected to all flow cells at a flow rate of 80 μL/min for three minutes to monitor association followed by a 10-20-minute flow of HBS-EP+running buffer (10 mM HEPES, 150 mM sodium chloride, 3mM EDTA, 0.05% Tween-20, pH 7.5) to monitor the dissociation phase. […] The surface was regenerated by two consecutive injections of 10 mM glycine (pH 1.5) at a flow rate of 60 μL/min at the end of each cycle. Binding data were fit to the 1:1 Langmuir model to extract binding constants from the BlAevaluate software. Double referencing was applied in each analysis to eliminate background responses from the reference surface and buffer only control.
For orientation: Surface plasmon resonance follows binding to a sensor surface in real time, without labels.

Test [2] concerns the target T2, His-tagged ECD of human 4-1BB (human, UniProt Q07011 24-184).
T2 construct: also called hu4-1BB; 4-1BB ECD; not shown: His tag
The description is as above. Here is the method: as §1

For test [3], the target named is T3, His-tagged ECD of cynomolgus monkey 4-1BB (cynomolgus monkey, UniProt Q07011 24-186 (human entry)).
T3 construct: also called cynomolgus 4-1BB; cyno 4-1BB; not shown: His tag
T3 chain: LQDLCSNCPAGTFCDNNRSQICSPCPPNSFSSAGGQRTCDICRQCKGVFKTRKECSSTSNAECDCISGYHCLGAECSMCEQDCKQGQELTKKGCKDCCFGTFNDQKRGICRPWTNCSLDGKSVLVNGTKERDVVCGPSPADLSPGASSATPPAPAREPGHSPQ
Described as above. Here is the method:
as §1

The target of test [4] is T2, His-tagged ECD of human 4-1BB. Nature of the test: SPR (Biacore).

By Kd is commonly meant the free concentration of one partner at which half of the binding sites on the other are occupied at equilibrium, for simple one-to-one binding. As a reminder, the koff is the rate constant with which the complex falls apart. A word on the kon: it is the rate constant with which the complex forms.

Take literature anti-4-1BB antibody 3H3: in test [1], the equilibrium dissociation constant (Kd) was found to be 0.98 nM, the koff was 0.0057 s⁻¹ and the on-rate (kon) was 5.8e+06 M⁻¹ s⁻¹.

In test [1], literature anti-4-1BB antibody 1D8 had a Kd of 3.9 nM, a koff of 0.008 s⁻¹ and a kon of 2.1e+06 M⁻¹ s⁻¹.

B1: hu107-1-hIgG4 (antibody, V domains shown)
VH: EVQLVQSGAEVKKPGSSVKVSCKASDYTFNDYWVSWVRQAPGQGLEWIGEIYPNSGATNFNGKFRGRATLTVDNSASTAYMELSSLRSEDTAVYYCTREYTRDWFAYWGQGTLVTVSS
VL: DVVLTQSPLSLPVTLGQPASISCRSSQSLLDSDGNTYLYWFQQRPGQSPRRLIYLVSNLGSGVPDRFSGSGSGTDFTLKISRVEAEDVGVYYCMQPTHAPYTFGQGTKLEIK
notes: Human IgG4 constant region with the S228P mutation; also called hu107.1x.1x
In test [2], B1 came in with a Kd of 0.58 nM, a koff of 8e-05 s⁻¹ and a kon of 140000 M⁻¹ s⁻¹. Further, in test [3], the Kd amounted to 0.22 nM and the koff is 5.2e-05 s⁻¹. In test [1], this molecule had a Kd of 4 nM and a kon of 330000 M⁻¹ s⁻¹.

B2: hu107-3-hIgG4 (antibody, V domains shown)
VH: EVQLVQSGAEVKKPGSSVKVSCKASDYTFNDYWVSWVRQAPGQGLEWIGEIYPNSGATNFNGKFRGRATLTVDNSASTAYMELSSLRSEDTAVYYCTREYTRDWFAYWGQGTLVTVSS
VL: DVQLTQSPSSLSASVGDRVTITCRSSQSLLDSDGNTYLYWFQQKPGKAPKRLIYLVSNLGSGVPSRFSGSGSGTDFTLTISSLQPEDFATYYCMQPTHAPYTFGQGTKVEIK
notes: Human IgG4 constant region with the S228P mutation; also called hu107.1x.1y
As for B2, the Kd in test [2] amounted to 0.81 nM; in test [3], 0.29 nM; in test [1] it was 5.1 nM. Moreover, the koff stood at 0.00011 s⁻¹ in test [2], 7e-05 s⁻¹ in test [3] and 0.0016 s⁻¹ in test [1]. In addition, the association rate constant (kon) in test [2] was 130000 M⁻¹ s⁻¹; in test [3] it was 240000 M⁻¹ s⁻¹; in test [1] it was 320000 M⁻¹ s⁻¹.

B3: hu107-1-hIgG1 (antibody, V domains shown)
VH: EVQLVQSGAEVKKPGSSVKVSCKASDYTFNDYWVSWVRQAPGQGLEWIGEIYPNSGATNFNGKFRGRATLTVDNSASTAYMELSSLRSEDTAVYYCTREYTRDWFAYWGQGTLVTVSS
VL: DVVLTQSPLSLPVTLGQPASISCRSSQSLLDSDGNTYLYWFQQRPGQSPRRLIYLVSNLGSGVPDRFSGSGSGTDFTLKISRVEAEDVGVYYCMQPTHAPYTFGQGTKLEIKR
notes: 312 is written here; Human IgG1 constant region bearing L234A and L235A; also called hu107.1x.1x
Take B3: in test [3], binding was put at a Kd of 0.13 nM, the koff is 4e-05 s⁻¹ and the kon is 310000 M⁻¹ s⁻¹.

B4: Mouse TABBY9 with mouse IgG1 constant (antibody, V domains shown)
VH: QVQLKQSGPGLVQPSQSLSITCTVSGFSLTSYGVHWVRQSPGKGLEWLGMIWSGGSTDYNAAFISRLSISKDNSKSQVFFKMNSLQADDTALYFCASYGGFYETMDYWGQGTSVTVSS
VL: DIQMTQTTSSLSASLGDRITISCRASQDISNYLNWYQRKPDGTVKLLIYYTSRLHSGVPSRFSGSGSGRDYSLTISNLEQEDIATYFCQQGNTLPYTFGGGTKLEIK
notes: Mouse IgG1; also called TABBY9-mIgG1
As to B4, in test [4], the binding result is recorded as “binds”.

B5: 20H4.9-hIgG4 (antibody, V domains shown)
VH: QVQLQQWGAGLLKPSETLSLTCAVYGGSFSGYYWSWIRQSPEKGLEWIGEINHGGYVTYNPSLESRVTISVDTSKNQFSLKLSSVTAADTAVYYCARDYGPGNYDWYFDLWGRGTLVTVSS
VL: EIVLTQSPATLSLSPGERATLSCRASQSVSSYLAWYQQKPGQAPRLLIYDASNRATGIPARFSGSGSGTDFTLTISSLEPEDFAVYYCQQRSNWPPALTFGGGTKVEIKR
B5: in test [2], the Kd was 4.9 nM, the koff turned out to be 0.0021 s⁻¹ and the kon was 420000 M⁻¹ s⁻¹. For the same molecule, in test [1], the binding result was “no binding (tested: antigen between 100 nM and 3.7 nM)”.

B6: MOR-7480.1-hIgG2 (antibody, V domains shown)
VH: EVQLVQSGAEVKKPGESLRISCKGSGYSFSTYWISWVRQMPGKGLEWMGKIYPGDSYTNYSPSFQGQVTISADKSISTAYLQWSSLKASDTAMYYCARGYGIFDYWGQGTLVTVSS
VL: SYELTQPPSVSVSPGQTASITCSGDNIGDQYAHWYQQKPGQSPVLVIYQDKNRPSGIPERFSGSNSGNTATLTISGTQAMDEADYYCATYTGFGSLAVFGGGTKLTVLG
Turning to B6, the binding result in test [1] was “no binding (tested: antigen between 100 nM and 3.7 nM)”.

B7: hu106-4-hIgG4 (antibody, V domains shown)
VH: EVQLVQSGAEVKKPGSSVKVSCKASGYTFTSYYIYWVRQAPGQGLEWIGNIWPGNGGTFYGEKFMGRATFTADTSTSTAYMELSSLRSEDTAVYYCARRPDYSGDDYFDYWGQGTLVTVSS
VL: SVELTQPPSVSVSPGQTARITCKLNSGNIGSYYVHWYQQKPGQAPVTMIYRDDKRPDGIPERFSGSSDSSSNSAFLTISGVQAEDEADYYCHSYDSTITPVFGGGTKLTVL
notes: Human IgG4 constant region with the S228P mutation; also called hu106.1x.3x
In test [2], B7 came in with a Kd of 200 nM, a koff of 0.042 s⁻¹ and a kon of 210000 M⁻¹ s⁻¹. In test [3], this molecule showed a Kd of 180 nM, a koff of 0.052 s⁻¹ and a kon of 280000 M⁻¹ s⁻¹. In test [1], this molecule yielded a Kd of 9.3 nM, a koff of 0.015 s⁻¹ and a kon of 1.6e+06 M⁻¹ s⁻¹.

B8: hu106-1-hIgG1 (antibody, V domains shown)
VH: EVQLVQSGAEVKKPGSSVKVSCKASGYTFTSYYIYWVRQAPGQGLEWIGNIWPGNGGTFYGEKFMGRATFTADTSTSTAYMELSSLRSEDTAVYYCARRPDYSGDDYFDYWGQGTLVTVSS
VL: NVMLTQPHSVSESPGKTVTISCKLNSGNIGSYYVHWYQQRPGSSPTTMIYRDDKRPDGVPDRFSGSIDSSSNSASLTISGLKTEDEADYYCHSYDSTITPVFGGGTKLTVLG
notes: 310 is written here; Human IgG1 constant region bearing L234A and L235A; also called hu106.1x.1x
In test [3], B8 had a Kd of 170 nM, a koff of 0.1 s⁻¹ and a kon of 620000 M⁻¹ s⁻¹.

B9: hu106-7-hIgG4 (antibody, V domains shown)
VH: EVQLVESGGGLVQPGGSLRLSCAASGYTFTSYYIYWVRQAPGKGLEWIGNIWPGNGGTFYGEKFMGRATFSADTSKNTAYLQMNSLRAEDTAVYYCARRPDYSGDDYFDYWGQGTLVTVSS
VL: SVELTQPPSVSVSPGQTARITCKLNSGNIGSYYVHWYQQKPGQAPVTMIYRDDKRPDGIPERFSGSSDSSSNSAFLTISGVQAEDEADYYCHSYDSTITPVFGGGTKLTVL
notes: Human IgG4 constant region with the S228P mutation; also called hu106.1y.3x
With B9, in test [2], the affinity, expressed as Kd, was 420 nM; the koff was 0.047 s⁻¹; the association rate constant (kon) is 110000 M⁻¹ s⁻¹. In test [1], the Kd worked out at 17 nM, the koff amounted to 0.037 s⁻¹ and the kon is 2.2e+06 M⁻¹ s⁻¹.
